From publication PMC9031227, “Structure-Activity Relationship Investigations of Novel Constrained Chimeric Peptidomimetics of SOCS3 Protein Targeting JAK2” (Pharmaceuticals, 2022) come the findings set out here.

Where no end group is shown, it is not given here. [ ]: non-standard residue; d: D form. S5 = C=CCCC[C@](C)(N)C(=O)O

For the experiment, the target named is T1, His-tagged Catalytic Domain of JAK2 (residues 826–1132) (UniProt O60674 826-1132, RED-tris-NTA dye bound to the His tag (His-Tag labeling Kit RED-tris-NTA)).
T1 construct: JAK2 (Janus Kinase 2), catalytic domain, residues 826-1132; also called JAK2 catalytic domain; Janus Kinase 2; source: bought: Carna Biosciences
T1 sequence (O60674 826-1132): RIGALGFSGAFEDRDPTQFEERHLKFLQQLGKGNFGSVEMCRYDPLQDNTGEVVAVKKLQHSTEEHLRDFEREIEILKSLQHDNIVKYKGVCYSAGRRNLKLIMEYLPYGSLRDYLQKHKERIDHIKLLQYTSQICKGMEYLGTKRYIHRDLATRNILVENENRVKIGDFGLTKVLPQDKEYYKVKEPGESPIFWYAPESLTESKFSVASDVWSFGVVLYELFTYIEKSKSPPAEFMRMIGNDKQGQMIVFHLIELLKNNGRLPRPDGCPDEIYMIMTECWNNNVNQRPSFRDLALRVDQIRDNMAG
In words: MST; Monolith NT 115; His-tagged JAK2 catalytic domain labelled with RED-tris-NTA kept constant, peptides in increasing concentrations; standard capillaries, 25 °C, 50 mM Tris-HCl, 150 mM NaCl, 0.05% Brij35, 1 mM DTT, 10% glycerol, 15% TFE, pH 7.5; fit by Langmuir binding isotherm. The following applies: both partners purified.

As to FSSKSEYQL[S5]FYWS[S5]VTG-OH (not fully specified; bridges not given here) [linear version of KIRCONG i/i+5 peptide], the affinity, expressed as Kd, was 8 µM.
